Patent US20250270341A1 (Alector, published 2025)
Changes are numbered by the printed parent chain.

T1: Full length mouse CD98hc on CHO cells (mouse, UniProt P10852 1-526)
T1 construct: CHO cells stably overexpressing it; also called CHO-mouse CD98hc; CHO-mCD98hc
T1 sequence: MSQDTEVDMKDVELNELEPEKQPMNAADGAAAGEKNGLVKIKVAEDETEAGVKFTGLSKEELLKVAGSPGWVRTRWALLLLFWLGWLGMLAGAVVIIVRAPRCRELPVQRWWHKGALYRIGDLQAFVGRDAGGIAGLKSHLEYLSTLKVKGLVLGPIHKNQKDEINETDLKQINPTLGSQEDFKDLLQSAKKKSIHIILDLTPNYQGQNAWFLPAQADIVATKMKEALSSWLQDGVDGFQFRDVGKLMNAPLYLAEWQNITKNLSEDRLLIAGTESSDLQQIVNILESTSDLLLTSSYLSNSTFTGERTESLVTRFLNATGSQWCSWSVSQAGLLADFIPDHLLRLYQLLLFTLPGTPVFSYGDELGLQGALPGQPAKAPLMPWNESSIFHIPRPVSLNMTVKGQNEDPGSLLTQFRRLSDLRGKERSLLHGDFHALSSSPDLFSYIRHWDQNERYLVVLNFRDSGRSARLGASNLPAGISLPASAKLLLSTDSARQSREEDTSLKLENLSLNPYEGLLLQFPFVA

T2: muCD98hc ECD Avi-His (mouse, UniProt P10852 100-526)
T2 construct: biotinylated on the Avi tag where captured on streptavidin; also called Mouse CD98-AVI-His; Mouse CD98hc-AVI-His
T2 sequence: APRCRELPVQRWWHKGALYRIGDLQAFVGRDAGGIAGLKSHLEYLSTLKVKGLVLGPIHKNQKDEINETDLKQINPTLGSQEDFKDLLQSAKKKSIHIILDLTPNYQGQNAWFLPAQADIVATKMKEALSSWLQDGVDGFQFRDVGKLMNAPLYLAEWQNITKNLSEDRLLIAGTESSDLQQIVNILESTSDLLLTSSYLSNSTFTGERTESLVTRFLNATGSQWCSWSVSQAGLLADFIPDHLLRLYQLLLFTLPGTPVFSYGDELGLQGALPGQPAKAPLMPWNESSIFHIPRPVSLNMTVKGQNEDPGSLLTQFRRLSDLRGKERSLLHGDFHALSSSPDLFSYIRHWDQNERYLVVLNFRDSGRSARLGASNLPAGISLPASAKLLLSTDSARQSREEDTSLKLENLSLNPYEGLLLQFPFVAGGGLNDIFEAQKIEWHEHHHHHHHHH

T3: Full length human CD98hc on CHO cells (human)
T3 construct: CHO cells stably overexpressing it; also called CHO-human CD98hc; CHO-huCD98hc
T3 chain: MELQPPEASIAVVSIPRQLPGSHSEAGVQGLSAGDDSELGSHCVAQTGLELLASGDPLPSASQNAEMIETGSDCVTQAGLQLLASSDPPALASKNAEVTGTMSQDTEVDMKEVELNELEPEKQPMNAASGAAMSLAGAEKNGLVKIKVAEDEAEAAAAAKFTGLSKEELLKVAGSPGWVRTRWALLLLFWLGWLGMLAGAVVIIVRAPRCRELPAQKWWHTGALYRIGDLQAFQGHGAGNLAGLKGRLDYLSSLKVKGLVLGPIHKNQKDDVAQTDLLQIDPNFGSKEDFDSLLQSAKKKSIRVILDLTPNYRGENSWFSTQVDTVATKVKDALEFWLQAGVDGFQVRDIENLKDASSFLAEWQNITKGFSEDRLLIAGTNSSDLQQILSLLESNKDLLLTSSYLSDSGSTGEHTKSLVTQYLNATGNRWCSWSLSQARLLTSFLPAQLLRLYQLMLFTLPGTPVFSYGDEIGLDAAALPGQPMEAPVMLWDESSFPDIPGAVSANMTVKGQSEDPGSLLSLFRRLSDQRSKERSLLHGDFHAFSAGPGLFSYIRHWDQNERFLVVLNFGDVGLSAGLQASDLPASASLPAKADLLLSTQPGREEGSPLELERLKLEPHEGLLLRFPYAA

T4: human CD98hc endogenously expressed on HCMEC/D3 cells (human)
T4 construct: human brain endothelial cell line
T4 chain: T3 chain

B1: CD98HC.04.047 (antibody, V domains shown)
VH: EVQLQESGPSLVKPSQTLSLTCSVTGDSITSGYWNWIRKFPGNKLEYMGYISYSGSTYYNPSLKGRVSITRDTSKNQYYLQLNSVTTEDTATYYCQRHVIYDYTWFAYWGQGTLVTVSA
VL: QIVLTQSPAIMSASPGEKVTISCSASSSVGYMYWLQQKPGSSPKPWIYRTSILASGVPARFSGSGSGTSYSLTISSMEAEDAATYYCQQYQSYPLTFGAGTKLELK
notes: hybridoma IgG
B2: CD98HC.04.065 (antibody, V domains shown)
VH: B1 VH with S56R, G65S
VL: B1 VL with G30H, L35F, A59D
notes: hybridoma IgG
B3: CD98HC.04.054 (antibody, V domains shown)
VH: QVQLQQSAAELARPGASVKMSCETSGYTFTRYTMNWVKQRPGQGLDWIGYINPSSGYAEYNQKFRGKTTLTADKSSSTAYIQLNSLTSEDSAVYYCVRYDGNYVYWGQGTTLTVSS
VL: DIVMTQSQKFMSTSFGDRVDITCKASQNVGSAVAWYQQKPGQSPKLLIYSASNRYTGVPDRFTGSGSGTDFTLTINNMQSADLADYFCQQYNFYPLTFGAGTKLDLK
notes: hybridoma IgG

Assays:
[1] = target: T1, Full length mouse CD98hc on CHO cells; assay: FACS, hybridoma supernatant
Text: The IgG positive hybridoma supernatants (898 in total) were initially screened for their ability to differentially bind CHO cells overexpressing human or mouse CD98hc cells compared to CHO parental cells by FACS. Overexpressing cells were harvested, washed, and labeled with various concentrations and combinations of CellTrace cell proliferation dyes CFSE and Violet (ThermoFisher, Cat #C34554 and Cat #34557, respectively) to create uniquely barcoded cell populations. Barcoded cells (5×10⁴ of each cell population) were aliquoted into 96-well U-bottom plates and incubated with 50 μl of hybridoma cell culture supernatant or 1 μg/ml of commercially available purified mouse anti-human CD98hc monoclonal antibody (Sigma Aldrich, Cat #SAB 4700503) and rat anti-mouse CD98hc antibody (Bio-Rad Laboratories, Hercules, CA, Cat #MCA2684) on ice for 30 minutes. […] Following this secondary antibody incubation, the cells were again washed twice with ice-cold FACS buffer and resuspended in a final volume of 50 μl of FACS buffer containing 0.25 μl/well propidium iodide (BD Biosciences, Cat #556463). Binding intensity on cells was analyzed using the FACS Canto system (BD Biosciences), with sorting gates drawn to exclude dead (i.e., propidium iodide-positive) cells. For each barcoded cell population, the ratio of APC Mean Fluorescence Intensity (MFI) divided by secondary antibody MFI was calculated for each anti-CD98hc hybridoma supernatant tested and reported in Table 5.

muCD98hc ECD Avi-His = target: T2, muCD98hc ECD Avi-His; assay: ELISA, hybridoma supernatant
Description: (§1) Briefly, 96-well polystyrene plates were coated with 5 μg/ml of streptavidin (Thermo Fisher, Cat #PI21125) in coating buffer (0.05M carbonate buffer, pH 9.6, Sigma, Cat #C3041) overnight at 4° C. Coated plates were then blocked with ELISA diluent (PBS+0.5% BSA+0.05% Tween20) for one hour. Blocking buffer was removed and human, cyno, or mouse Avi-His-tagged CD98hc and Avi-His-tagged human TfR polypeptides were added at 1 μg/ml in ELISA diluent and captured for 1 hour at room temperature. After washing three times with 300 μl of PBST (PBS+0.05% Tween20, Thermo 28352), the hybridoma cell culture supernatants or 1 μg/ml of commercially available purified mouse anti-human CD98hc monoclonal antibody (Sigma Aldrich, Cat #SAB 4700503) and rat anti-mouse CD98hc antibody (Bio-Rad Laboratories, Hercules, CA, Cat #MCA2684) were added (50 μl/well) to each well. After 30 minutes of incubation at room temperature, the plates were washed three times with 300 μl of PBST. […] After a final set of washes (3×300 μl in PBST), 50 μl/well of BioFx TMB substrate (Surmodics, Eden Praire, MN, Cat #TMBW-1000-01) was added to the wells. The reaction was then quenched after 5-10 mins with 50 μl/well of 2N sulfuric acid. The plates were read for absorbance at 450 nm on a SpectraMax M5 (Molecular Devices, Sunnyvale, CA) using SoftMax Pro software.

[2] = target: T5, Human TfR-AVI-His (control) (human, UniProt P02786 89-760); assay: ELISA, hybridoma supernatant
T5 construct: control protein; also called Avi-His-tagged human TfR; human transferrin receptor
Description: as §1

[3] = target: T1, Full length mouse CD98hc on CHO cells; assay: FACS, hybridoma supernatant; remark: listed apart in the source
[4] = target: T3, Full length human CD98hc on CHO cells; assay: FACS, hybridoma supernatant
[5] = target: T4, human CD98hc endogenously expressed on …; assay: FACS, hybridoma supernatant

T5 sequence (P02786 89-760 limits assumed): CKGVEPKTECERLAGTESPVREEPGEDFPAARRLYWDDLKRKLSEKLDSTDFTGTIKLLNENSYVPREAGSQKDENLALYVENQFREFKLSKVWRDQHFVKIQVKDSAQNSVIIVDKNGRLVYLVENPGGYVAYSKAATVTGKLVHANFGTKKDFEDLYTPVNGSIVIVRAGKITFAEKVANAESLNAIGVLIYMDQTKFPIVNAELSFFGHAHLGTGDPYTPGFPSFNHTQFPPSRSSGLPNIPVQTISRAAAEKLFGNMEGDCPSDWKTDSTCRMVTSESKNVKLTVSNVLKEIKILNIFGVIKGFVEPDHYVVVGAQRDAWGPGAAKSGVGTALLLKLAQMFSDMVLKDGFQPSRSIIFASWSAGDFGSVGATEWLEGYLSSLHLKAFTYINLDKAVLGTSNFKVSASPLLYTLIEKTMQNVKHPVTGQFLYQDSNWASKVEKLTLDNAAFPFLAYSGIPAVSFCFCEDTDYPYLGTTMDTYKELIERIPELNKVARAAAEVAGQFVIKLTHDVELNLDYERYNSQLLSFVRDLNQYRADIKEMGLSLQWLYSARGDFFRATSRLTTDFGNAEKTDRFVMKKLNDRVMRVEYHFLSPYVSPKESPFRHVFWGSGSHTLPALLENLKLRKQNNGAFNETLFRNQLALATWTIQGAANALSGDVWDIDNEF

| Binder | binding result [1] | OD450 (muCD98hc ECD Avi-His) | OD450 [2] | MFI ratio over secondary antibody [3] | MFI ratio over secondary antibody [4] | MFI ratio over secondary antibody [5] |
| --- | --- | --- | --- | --- | --- | --- |
| B1 | no binding | 0.103 | 0.0949 | 1.2 |  |  |
| B2 | no binding | 0.0984 | 0.1 | 1.2 |  |  |
| B3 | no binding |  |  | 1.2 | 52 | 218 |
